Experimental data reported in patent US20130045267A1, “METHODS OF USING AGENTS THAT MODULATE CLAUDIN EXPRESSION” (priority 2010, published 2013).
Several values for one entry are separate records, joined by “and”; a condition that tells them apart may be missing. Equal values may be shown once.

Columns and labels:
[1] = system: claudin-1; test: Western blot of claudin-1 protein in primary human keratinocytes; format: cell-based; conditions: PHK
Protocol: Human keratinocytes were isolated from neonatal foreskin. Poumay et al., “Basal Detachment of the Epidermis Using Dispase: Tissue Spatial Organization and Fate of Integrin Alpha 6 Beta 4 and Hemidesmosomes,” J. Invest. Dermatol. 102:111-7 (1994), which is hereby incorporated by reference in its entirety. PHK were cultured in Keratinocyte-SFM (Invitrogen/Gibco) with 1% Pen/Strep, 0.2% Amphotericin B (Invitrogen/Gibco). To differentiate PHK, cells were grown in DMEM (Invitrogen/Gibco) with 10% heat-inactivated fetal bovine serum (Invitrogen/Gibco) and 1% Pen/Strep, 0.2% Amphotericin B (Invitrogen/Gibco). For TJ modulation experiments, the following cytokines were added alone or in combination to the differentiation media; human IL-4 (50 ng/ml; R&D system) and IL-13 (50 ng/ml; R&D system).
PHK were lysed on ice in RIPA lysis buffer (20 mM Tris, 50 mM NaCl, 2 mM EDTA, 2 mM EGTA, 1% sodium deoxycholate, 1% TX-100, and 2% SDS, pH 7.4), with 1:100 Protease Inhibitor Cocktail (Sigma), 1:100 Phosphatase Inhibitor Cocktail ([…] for 30 min at 4° C. The samples were heated at 95° C. for 10 min and then centrifuged at 14,000 rpm for 15 min. Forty μg of protein, determined by BCA (Pierce) in NuPage LDS Sample Buffer (Invitrogen) was applied to 4-12% NuPage Bis-Tris gels (Invitrogen). Electrophoresis was performed under reducing conditions with MES SDS Buffer (Invitrogen). Membranes were incubated in blotting solution (5% non-fat dry milk in PBS+0.05% Tween 20) at RT for 1 h and then incubated with primary antibodies; claudin-1 (JAY.8; Zymed), occludin (OC/3F10; Zymed) and GAPDH (FL-355; Santa Cruz). An HRP-linked secondary antibody (GE Healthcare) was used with ECL (GE Healthcare) to visualize bands by autoradiography with Kodak BioMax MR film. The pixel intensity of each band was estimated with Image J.
PHK were plated on glass coverslips at 2-3×10^5 cells/well in a 6-well plate or at 2-3×10^4 cells/filter in Transwell insert (Costar; PET membrane, 0.4 μm pore size, 6.5 mm insert) in Keratinocyte-SFM without antibiotics. The next day after plating, cells were transfected with claudin-1 specific or control (scrambled) siRNAs (Santa Cruz) using Lipofectamine™ 2000 transfection Reagent (Invitrogen). TEER and permeability experiments were conducted 48 hours after PHK were switched to differentiation media.

[2] = system: HSV-1 strain F; test: HSV-1 fluorescent-focus assay in PHK; format: cell-based, Herpes Simplex Virus (HSV)-1; conditions: siRNA 100 nM, MOI 0.1, 24 h, n=6
Protocol: Infection studies were performed using the highly virulent HSV-1 strain F (provided by Dr. D.C. Johnson). Twenty-four to 48 h post-transfection with 100 nM claudin-1 or control siRNA, the cells were differentiated in DMEM with 10% heat-inactivated FBS for 24 h. Cells were washed twice with HBSS and infected with HSV-1 strain F at a multiplicity of infection (MOI) of 0.1 in DMEM containing 1% heat-inactivated FBS at 37° C., with rocking every 15 min. After 2 h, the viral inoculum was removed, and the cells were washed 2× with HBSS and incubated in DMEM containing 5% HI-FBS and 0.4% human-γ-globulin (Sigma; final concentration 0.5 mg/ml) for 24 hr to neutralize any extracellular virus.
HSV-infected PHK were washed 2× with PBS and fixed in 4% formaldehyde/PBS for 20 min at room temperature. A polyclonal rabbit anti-HSV-1 (Dako) antibody diluted 1:500 in PBS/1% BSA was placed on the PHK for 1 h at 37° C. followed by Alexa Fluor 488 donkey-anti-rabbit IgG H+L (1:1000, Molecular Probes) and 4′,6-diamidino-2-phenyl-indole, dihydrochloride (DAPI) (1:10,000, Molecular Probes). Coverslips were mounted onto slides with SlowFade (Molecular Probes). […] Images were stored in Portable Network Graphics (PNG) format and analyzed computationally to objectively quantify differences in focal forming units (FFU). […] Cell density was calculated by counting the number of DAPI labeled nuclei, assigned to the blue channel. Images were analyzed using MATLAB to enumerate FFU, and total cell number. […]
The MOI was chosen based on findings from viral titration (0.01 to 10 MOI) studies on differentiated and undifferentiated PHK, respectively, used as negative and positive controls. […] For each sample, six random fields were captured at identical acquisition settings and analyzed computationally to objectively quantify differences in focal forming units (FFU). […] An average of 4.8±0.7 FFU/field were counted in CLDN1 knockdown PHK, while only 2.5±0.5 FFU/field were detected in the control cells (P=0.05; n=6; FIG. 15C). Adapted Fluorospot software was used to semi-quantify differences in dimensions of each FFU. […]

B1: CLDN1 siRNA: claudin-1 specific siRNA (Santa Cruz), a pool of 3 separate strands, SEQ ID NO: 10-15 (nucleic acid)
chain 1: UACAUAGGCAUAGUUCAUGNN
chain 2: CAUGAACUAUGCCUAUGUANN
chain 3: AACGUAUGCAGUUAAUUCCNN
chain 4: GGAAUUAACUGCAUACGUUNN
chain 5: UGAAGAUCUAUGUAUGUGGNN
chain 6: CCACAUACAUAGAUCUUCANN
modifications: chemistry not given here
- claudin-1 protein by Western blot ([1]; CLDN1 siRNA, 48 h): dose-dependent reduction
- decrease in claudin-1 protein expression compared to scrambled siRNA-transfected cells ([1]; dose-dependent): ≤ 60%
- FFU area [2]: 15649±4367 pixels
- HSV-1 focal forming units [2]: 4.8±0.7 FFU/field
- diameter of the major axis of FFU [2]: 207±22 μm and 207±21 μm
